The text below walks through data of PMC7281310, “Pharmacokinetic Analysis of Epithelial/Endothelial Cell Barriers in Microfluidic Bilayer Devices with an Air–Liquid Interface” (Micromachines, 2020).

The subject of one series is some cell types. To be noted: 30 min exposure; cited from earlier work.
The next series relates to HUVEC endothelial cells. In words: Trypan blue cell viability assay, HUVEC. The series is classed as cell-based, human. Particulars: tested concentration range 10^−3–10^1 µM, 1 h exposure. On the procedure:
(§1) In general, higher compound concentration is desired since the emitted light intensity increases with molecular concentration enhancing the signal-to-noise ratio and, thereby, improving the reliability of the measured concentration. However, some compounds could be toxic agents to cell cultures; as the signal intensity increases with increasing compound concentration, cells could be adversely affected resulting in cell death. […] Epithelial and endothelial cells were seeded and cultured in 96-well plates for 48 h. The cell cultures were exposed to the selected compounds at various concentrations for 1 h and then washed using PBS. Next, the wells were immersed in 0.2% Trypan Blue for 10 min, after which the cells were fixed using 4% paraformaldehyde and rinsed with PBS. Using a brightfield microscope, dead cells were counted using uptake of trypan blue as a marker for nonviable cells.

Details of series [1]: method as in PMID 21641324, PMID 18646033. To be noted: under conditions similar to the present experiments; cited from earlier work.
The nature of series [2]: Permeability of agitated vs un-agitated insulin in Transwells without cells. The format is in vitro ADME. To be noted: agitated 5 min in jet nebulizer, 20 min diffusion time, fluorescence. On the procedure:
The permeability values, calculated based on concentration measurements in the Transwell bottom compartments after 20 min diffusion time, are shown in Figure 10. […] It is; therefore, critical to maintain the stability of compounds during aerosol generation process in order to obtain reliable concentration–time plots using microfluidic bilayer devices with an air–liquid interface.

The nature of series [3]: Permeability in Transwells without cells. The series is classed as in vitro ADME. To be noted: no cells; 12-well Transwell, polyester membrane, 0.4 µm pores, 1.12 cm^2; static, top to bottom chamber; 2 h; endothelial cell media; C0 = 60, 3, 1, 3 µM for 4-dextran, C-dextran, 70-dextran, insulin; fluorescence plate reader; n = 3. On the procedure: (§2) Commercially-available 12-well Transwells (Corning, Corning, NY, USA), with polyester membranes, were utilized to assess static compound permeability in the absence of flow-induced shear stress. The area of each Transwell membrane was 1.12 cm^2 with 0.4 µm diameter pores and 0.5% porosity. Epithelial cells were seeded in the Transwell top apical compartment at a density of 2 × 10^6 cells/mL. Once the cell monolayer had reached confluency, the 500 µL culture media in the top compartment was replaced with a solution of endothelial cell media mixed with various fluorescently-labeled compounds at a pre-determined initial concentration. The bottom basolateral compartment was filled with 1500 µL fresh endothelial cell culture media, and the Transwell was placed in an incubator for 2 h. Then, liquid samples of 100 µL from both compartments were aliquoted into a 96-well plate. Fluorescent intensities of the collected samples were measured, using a BioTek Synergy 2 Plate Reader (BioTek, Winooski, VT, USA), and converted to molecular concentrations as reported elsewhere.
(§3) Investigation of molecular transport across Transwell membranes is useful in establishing baseline permeability characteristics with no shear stress. […] The molecular concentration at the Transwell bottom chamber CT was then measured after 2 h. […]

Series [4] relates to A549 epithelial cells. In words: Permeability in Transwells with A549 cell monolayer. The series is classed as in vitro ADME, human. To be noted: confluent A549 monolayer in apical chamber; 12-well Transwell, polyester membrane, 0.4 µm pores, 1.12 cm^2; static, top to bottom chamber; 2 h; endothelial cell media; C0 = 60, 3, 1, 3 µM for 4-dextran, C-dextran, 70-dextran, insulin; fluorescence plate reader; n = 3. On the procedure: as §2, with “elsewhere. […]” for “elsewhere.”
as §3

The test system of series [5] is A549 epithelial cells. In words: Trypan blue cell viability assay, A549. The series is classed as cell-based, human. Particulars: insulin at 10 µM, 1 h exposure. On the procedure:
as §1

Series [6] is described as follows: Turbidity / fibril formation after agitation in jet nebulizer (fluorescent intensity, visual pellet). The format is physicochemical. On the procedure: In order to generate an aerosol, using a jet nebulizer, a high-pressure air stream is forced through a liquid solution to form a mixture of tiny liquid droplets suspended in air. […] Visual inspection of the upper jet nebulizer platform provides an indirect evidence for insulin fibril formation. The photographs of the nebulizer platform, shown in Figure 8, were taken following 5 min of the solution agitation.
The intensity of the agitated and un-agitated dextran is approximately the same (Ia/Iu ≅ 1), indicating constant transparency with and without agitation, which is consistent with the lack of a dextran pellet on the nebulizer platform. […] The initially lower intensity of the agitated insulin with its low transparency, which is correlated with the pellet formation on the nebulizer platform, can be due to insulin fibril formation.

A value given as a limit tells only on which side of the number the result lay.

As to “Insulin: Fluorescently tagged (FITC) insulin, 5.8 kDa, used at 3 µM as potential inhaled therapeutic compound”, in the series on some cell types, the “Concentration at which some cell types start to exhibit signs of cell death” value was “greater than 1 µM”. In addition, in the series on HUVEC endothelial cells, the “Cytotoxicity to HUVEC cells (in words)” value is on record as “did not have adverse effect”. In series [1], the “Time of fibril dissociation” value was under 1 h. The “Permeability of agitated solution compared with un-agitated solution” value in series [2] is on record as “clearly lower”. The “Permeability in Transwells, Pat” value in series [3] is 158 nm/s; with A549 epithelial cells [4], 50 nm/s. Besides, in the series with A549 epithelial cells [5], the “A549 epithelial cell viability” value was 88%. Also, the “Time to reach steady-state Ia/Iu” value in series [6] (after 5 min agitation in a jet nebulizer) is at most 20 min. Further, the “Pellet (solution turbidity) on nebulizer platform, visual inspection” value in series [6] (following 5 min of solution agitation) is on record as “visible”. Also, in series [6] (following 5 min of solution agitation, visual inspection), the “Time for pellet to disappear” value is on record as “within half an hour”.
